Common to all, as to assay: GST pulldown (co-precipitation), anti-HA western blot band quantification
(In general: Immunoblotting shows a protein as a band on a membrane.)

Assay [1] concerns the target ESCRT-I complex: GST–TSG101 (m6) + Myc–VPS28 + HA–VPS37D (m12). The conditions noted are these: input 1%, value = UMAD1 pulldown band intensity / input band intensity, parent: 0.3.
Assay [2] addresses ESCRT-I complex: GST–TSG101 (m6) + Myc–VPS28 + HA–VPS37B (m10). The conditions noted are these: input 1%, value = UMAD1 pulldown band intensity / input band intensity, parent: 2.4.
Assay [3] has as its target ESCRT-I complex: GST–TSG101 (m6) + Myc–VPS28 + HA–VPS37C (m11). The settings on record: input 1%, value = UMAD1 pulldown band intensity / input band intensity, parent: 2.1.

HA–UMAD1 (from UniProt C9J7I0) E130A: the response came out at 0 in assay [1] (293T cells co-transfected with GST–TSG101, Myc–VPS28, HA–VPS37D and HA–UMAD1 M4); 0.2 in assay [2] (293T cells co-transfected with GST–TSG101, Myc–VPS28, HA–VPS37B and HA–UMAD1 M4); 0.4 in assay [3] (293T cells co-transfected with GST–TSG101, Myc–VPS28, HA–VPS37C and HA–UMAD1 M4).
For HA–UMAD1 (from UniProt C9J7I0) F127A, the response came to 0 in assay [1] (293T cells co-transfected with GST–TSG101, Myc–VPS28, HA–VPS37D and HA–UMAD1 M3); 1.2 in assay [2] (293T cells co-transfected with GST–TSG101, Myc–VPS28, HA–VPS37B and HA–UMAD1 M3); 1.2 in assay [3] (293T cells co-transfected with GST–TSG101, Myc–VPS28, HA–VPS37C and HA–UMAD1 M3).
On to “HA–UMAD1 (from UniProt C9J7I0) V89A; P90A; F91A”, for which the response in assay [1] (293T cells co-transfected with GST–TSG101, Myc–VPS28, HA–VPS37D and HA–UMAD1 M1) turned out to be 0; in assay [2] (293T cells co-transfected with GST–TSG101, Myc–VPS28, HA–VPS37B and HA–UMAD1 M1), 0; in assay [3] (293T cells co-transfected with GST–TSG101, Myc–VPS28, HA–VPS37C and HA–UMAD1 M1) it was 0.
Regarding HA–UMAD1 (from UniProt C9J7I0) Y125A, the response in assay [1] (293T cells co-transfected with GST–TSG101, Myc–VPS28, HA–VPS37D and HA–UMAD1 M2) came out at 0; in assay [2] (293T cells co-transfected with GST–TSG101, Myc–VPS28, HA–VPS37B and HA–UMAD1 M2), 0.4; in assay [3] (293T cells co-transfected with GST–TSG101, Myc–VPS28, HA–VPS37C and HA–UMAD1 M2), 0.6.

For the origin of these results see PMC10445733.
